Test [1] has as its target embryonic chicken Ang II receptor (chicken). The test can be described thus: competition for 125I[Sar1Ile8]Ang II binding, E13 chicken chorioallantoic membranes.
For test [2], the target named is embryonic chicken AT4 receptor (chicken). The test can be described thus: competition for [125I]Ang IV binding, E13 chicken chorioallantoic membranes.

Where no end group is shown, it is not given here. [ ]: non-standard residue; d: D form. Nle = CCCC[C@H](N)C(=O)O

Usually IC50 stands for the concentration needed to halve the response being measured. A lower IC50 goes with greater potency.

Chain of embryonic chicken AT4 receptor (chicken) (F1NNE7 entry or part of it): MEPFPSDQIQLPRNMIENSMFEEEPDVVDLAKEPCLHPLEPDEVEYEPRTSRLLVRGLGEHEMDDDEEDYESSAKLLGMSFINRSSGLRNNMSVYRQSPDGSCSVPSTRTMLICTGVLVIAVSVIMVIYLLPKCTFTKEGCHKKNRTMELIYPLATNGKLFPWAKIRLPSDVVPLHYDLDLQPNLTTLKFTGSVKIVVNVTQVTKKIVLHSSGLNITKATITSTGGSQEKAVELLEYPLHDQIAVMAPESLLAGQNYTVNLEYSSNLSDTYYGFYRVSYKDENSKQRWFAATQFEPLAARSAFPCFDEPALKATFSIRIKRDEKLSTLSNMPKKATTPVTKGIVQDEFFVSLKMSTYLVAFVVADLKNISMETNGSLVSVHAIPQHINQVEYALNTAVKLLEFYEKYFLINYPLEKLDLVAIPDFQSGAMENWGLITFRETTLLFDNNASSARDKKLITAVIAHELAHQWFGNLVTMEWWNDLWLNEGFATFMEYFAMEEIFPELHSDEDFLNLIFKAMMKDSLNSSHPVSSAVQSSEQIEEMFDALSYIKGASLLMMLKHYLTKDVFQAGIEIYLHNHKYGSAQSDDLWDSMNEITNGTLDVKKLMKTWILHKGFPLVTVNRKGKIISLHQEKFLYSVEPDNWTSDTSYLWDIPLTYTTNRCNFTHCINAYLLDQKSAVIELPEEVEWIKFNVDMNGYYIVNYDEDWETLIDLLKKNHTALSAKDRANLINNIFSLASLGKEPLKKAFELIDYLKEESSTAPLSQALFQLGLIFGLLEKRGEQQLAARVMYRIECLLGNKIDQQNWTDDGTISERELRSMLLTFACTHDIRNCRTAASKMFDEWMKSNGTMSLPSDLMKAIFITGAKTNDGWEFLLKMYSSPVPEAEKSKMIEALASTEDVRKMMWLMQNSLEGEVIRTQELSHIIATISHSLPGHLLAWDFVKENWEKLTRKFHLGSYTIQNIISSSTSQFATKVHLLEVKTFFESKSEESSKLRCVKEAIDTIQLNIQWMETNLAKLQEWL
Chain of embryonic chicken Ang II receptor (chicken) (P79785 whole entry): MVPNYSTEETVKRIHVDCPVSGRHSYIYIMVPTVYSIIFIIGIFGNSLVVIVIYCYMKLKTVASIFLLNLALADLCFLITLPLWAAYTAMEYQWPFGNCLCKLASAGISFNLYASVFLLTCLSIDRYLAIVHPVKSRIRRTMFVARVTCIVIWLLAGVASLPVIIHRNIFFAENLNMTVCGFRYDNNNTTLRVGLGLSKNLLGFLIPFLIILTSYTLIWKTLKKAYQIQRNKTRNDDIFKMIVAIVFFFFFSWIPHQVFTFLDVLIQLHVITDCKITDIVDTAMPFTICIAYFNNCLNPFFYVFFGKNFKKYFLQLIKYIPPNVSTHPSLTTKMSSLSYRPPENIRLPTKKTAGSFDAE

Consider [Nle]YIHPF [Nle^1-AIV], for which the IC50 in test [1] stood at 8 µM; in test [2], 0.043 µM.

Values taken from patent US20020147129A1.
